Measurements published in article PMC12199146, “Unique conformational dynamics and protein recognition of A-to-I hyper-edited dsRNA”.

B1: A-RNA (non-edited 20-mer dsRNA) (dsRNA)
RNA 1: ACUGGACAAAUACUCCGAGG
RNA 2: CCUCGGAGUAUUUGUCCAGU

Assays:
[1] = target: T1, Endonuclease V (EcEndoV), wild-type (Escherichia coli, UniProt P68739 1-223); assay: EMSA; EMSA: 25 mM sodium phosphate pH 6.5, 50-300 mM NaCl (500 mM in Fig. S17E), 1 mM DTT, 5 mM MgCl2, 30 min on ice, 2 pmol RNA in 10 ul, 12% native gel in TBE at room temperature; NMR: 25 mM sodium phosphate pH 6.5, 150 mM NaCl, 5 mM MgCl2, 1 mM DTT, 5% D2O, 50 uM RNA, 288 K; details: protein: recombinant; tags: N-terminal His-tag removed with TEV protease; single strand
T1 sequence: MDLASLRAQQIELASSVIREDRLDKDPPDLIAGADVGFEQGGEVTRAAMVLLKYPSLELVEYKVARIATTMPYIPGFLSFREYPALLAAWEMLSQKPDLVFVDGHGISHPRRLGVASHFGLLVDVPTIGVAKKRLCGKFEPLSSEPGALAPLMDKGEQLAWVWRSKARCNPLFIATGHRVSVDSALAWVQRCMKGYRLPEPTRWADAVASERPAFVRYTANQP

[2] = target: T1, Endonuclease V (EcEndoV), wild-type; assay: NMR imino line broadening; 5 mM Mg2+, 150 mM NaCl, 288 K, 1:1; backbone interaction, non-specific; EMSA: 25 mM sodium phosphate pH 6.5, 50-300 mM NaCl (500 mM in Fig. S17E), 1 mM DTT, 5 mM MgCl2, 30 min on ice, 2 pmol RNA in 10 ul, 12% native gel in TBE at room temperature; NMR: 25 mM sodium phosphate pH 6.5, 150 mM NaCl, 5 mM MgCl2, 1 mM DTT, 5% D2O, 50 uM RNA, 288 K; details: protein: recombinant; tags: N-terminal His-tag removed with TEV protease; 20-mer duplex, residues 1-40

Binder	binding result [1]	binding result [2]
CCUCGGAGUAUUUGUCCAGU (ssRNA) [ssRNA substrate(s) without inosine]	no binding	–
B1	–	binds
